In US8389237B2, “Antibodies against RAMP3” (Medella Therapeutics Limited, priority 2007, dated 2013):

Key:
[1] = system: U-87 glioblastoma cell line; experiment: MTT Cell Proliferation assay, U-87 glioblastoma cell line; format: cell-based; settings: U-87, 10 μg dose, after 8 days of culture; FIG. 14
Protocol: The cell culture was carried out under aseptic conditions on Nunclon™ treated tissue culture plastics. The U-87 glioblastoma cells (ATCC noHTB-14) used for this project were cultured in standard EMEM (Earle's Minimum Essential Medium) media (Gibco) with 10% Fetal Calf Serum (Gibco) and 5% Penicillin/Streptomycin antibiotic (Sigma). The frozen cells were thawed at 37° C. for 2 minutes. The cells were then immediately transferred to 75 cm2 flask with 10 ml of media. The culture was incubated at 37° C. with 5% CO2 to attain confluency. The media was changed every three days and the cells were then subcultured after reaching 80-90% confluency. […]
The U87 glioblastoma cells were grown under standard conditions (as mentioned above). The total number of cells were counted using a haemocytometer (Hawksley) and the concentration was calculated using the following equation: […]
Two groups of proliferation studies were carried out for each antibody. […] Mouse anti-GST antibody concentration responses were also calculated the similar way since it was the antibody control for the experiment
In order to check for consistency of the cells seeded, a 12-24 hours study was performed. […] The plate was read for absorbance at 595 nm (Spectramax M5e), using the software Softmax™ Pro 5.2.X 100035.
The proliferation/survival of SW-13 and U87 (Glioblastoma cell line) cells was determined using the MTT assay.

[2] = system: MDA-MB-436-GFP breast cancer cell line; experiment: MTT Cell Proliferation assay, MDA-MB-436-GFP breast cancer cell line; format: cell-based; settings: after 8 days of culture, FIG. 17
Protocol: (§1) Two groups of proliferation studies were carried out for each antibody. One group was used to study the effect on proliferation by the antibody in presence of endogenous adrenomedullin, while the other group was used to the study the effects of antibody in presence of exogenously added adrenomedullin. Varying concentrations of antibody were prepared in PBS to result in final well concentrations of 10 μg, 1 μg, 100 ng, 10 ng, 1 ng, 100 pg, 10 pg and 1 pg. Six replicates of each concentration of each antibody was carried out. This dose range was used in both groups. Adrenomedullin was added to the appropriate group to a final well concentration of 200 nM. 5-FluoroUracil (Fluka) was used as a positive control (100 mM) for the reduction in proliferation. PBS controls were also prepared. The plates were then incubated under standard conditions. Replacement and re-dosing of antibody and controls was carried out every 2 days. Mouse anti-GST antibody concentration responses were also calculated the similar way since it was the antibody control for the experiment
(§2) In order to check for consistency of the cells seeded, a 12-24 hours study was performed. Further time points were carried out at 2, 4, 6 and 8 days. […] The plate was read for absorbance at 595 nm (Spectramax M5e), using the software Softmax™ Pro 5.2.X 100035.

[3] = system: PC-3 prostate cancer cell line; experiment: MTT Cell Proliferation assay, PC-3 prostate cancer cell line; format: cell-based; settings: PC-3, 10 μg, after 8 days of culture, FIG. 19
Protocol: as §1, §2

[4] = system: HCT116 colon cancer cell line; experiment: MTT Cell Proliferation assay, HCT116 colon cancer cell line; format: cell-based; settings: HCT116, 10 μg, after 8 days of culture; FIG. 21
Protocol: as §1, §2

[5] = system: U-87 glioblastoma cancer cell line; experiment: Apoptosis assay (caspase-3), U-87 cells; format: cell-based; settings: U-87, 10 μg; FIG. 22
Protocol: (§3) The apoptosis assay was carried out using the Caspase-3 Assay kit (Sigma).
U-87 cells were prepared under standard conditions. A cell solution of 2×10^7 cells was made up in 2 ml of media were dispensed into polypropylene tubes.
(§4) 2×10^7 cells wens taken for each treatment. The treatment groups were, antibody treated cells (for each antibody), anti-Fas antibody, antibody and adrenomedullin treated cells, blank and adrenomedullin treated cells. The positive control used was anti-Fas monoclonal antibody (MBL). The final concentration of antibodies used was […] and for anti-Fas antibody was 500 ng.
(§5) The treated cell suspension in 2 ml media were incubated for 3 hours at 37° C. in a 5% CO2 atmosphere.
The assay buffer and lysis buffer given in the kit was prepared using the given 17 megohm water as per the standard instructions given in the protocol. After 3 hours of incubation, the cells were centrifuged at 600 g for 5 minutes at 4° C. The supernatant was discarded and the cells were resuspended in 1 ml PBS. The cells were once again centrifuged using the above mentioned conditions and the supernatant was discarded. The cell pellet was resuspended in 200 μl 1× lysis buffer and incubated on ice for 20 minutes. The lysed cells were centrifuged at 20,000 g for 15 minutes at 4° C. […] The absorbance was read at 405 nm (Spectramax M5e), using the software Softmax™ Pro 5.2.36.

[6] = system: MDA-MB-436-GFP breast cancer cell line; experiment: Apoptosis assay (caspase-3), MDA-MB-436-GFP cells; format: cell-based; settings: 10 μg, FIG. 23
Protocol: as §3, §4, §5
The assay buffer and lysis buffer given in the kit was prepared using the given 17 megohm water as per the standard instructions given in the protocol. After 3 hours of incubation, the cells were centrifuged at 600 g for 5 minutes at 4° C. The supernatant was discarded and the cells were resuspended in 1 ml PBS. The cells were once again centrifuged using the above mentioned conditions and the supernatant was discarded. The cell pellet was resuspended in 200 μl 1× lysis buffer and incubated on ice for 20 minutes. The lysed cells were centrifuged at 20,000 g for 15 minutes at 4° C. The cell lysine were then laid out in a 96 well flat bottomed plate as shown in FIG. 6 and incubated overnight. The absorbance was read at 405 nm (Spectramax M5e), using the software Softmax™ Pro 5.2.36.

[7] = system: MDA-MB-436-GFP breast cancer cells; experiment: MDA-MB-436-GFP xenograft in CD1 nude mice; format: in vivo, CD1 nude (nu/nu) mice; settings: right flank of CD1 nude mice, 6 weeks
Protocol: MDA-MB-436-GFP cells were cultured in RPMI media containing penicillin (50 U/ml), streptomycin (50 μg/ml), glutamine (1 mg/ml), and supplemented with 10% fetal bovine serum. Cells were cultured under a humid 5% CO2/95% air atmosphere, and fed with fresh medium every 2 days, being routinely monitored for mycoplasma contamination. Cells growing exponentially were harvested using Trypsin EDAT solution. All culture media components were purchased from Invitrogen Life Technologies
Animal work was performed in the animal facility of the University of Sheffield. Male 4-to-5-week-old CD1 nude (nu/nu) mice were used. Mice were acclimated and housed in sterile cages in groups of four or less under laminar flow hoods in a temperature-controlled room with a 12-hour light/12-hour dark schedule, and fed autoclaved chow and water ad libitum.
CD1 nude (nu/nu) nude mice were implanted with MDA-MB-436-GFP breast cancer cells. For the cell implantations, MDA-MB-436-GFP cells, grown in culture, were washed with PBS, dispersed in a 0.05% solution of trypsin, and resuspended. […] Tumors were measured with a digital venier calliper (Site), and tumour volumes were determined using the formula width×length×height×0.52 (for ellipsoid form), these measurement were taken twice weekly. […]

B1: JF2: monoclonal anti-RAMP-3 antibody, IgG, IgG1 subtype (antibody, V domains shown)
VH: QVQLVESGGGVVQPGKSLRLSCAASGFTFSSYGMYWVRQAPGKGLEWVAVISYDGSNKYYADSVKGRFTISRDNSKNTLYLQMNSLRAEDTAVYNCAKEMRYGSGRKAIKYYYGMDVWGQGTTVTVSSASTKGPSVFPLA
VL: DIQMTQSPSSLSASLGERVSLTCRASQDIGSNLNWLQQEPDGTIKRLIYATSSLDSGVPKRFSGSRSGSDYSLTISSLESEDFVDYYCLQYASSPPTFGGGTKLEIKRADAAPTVSIFPPSSKLG
- reduction in proliferation [1]: 40%
- reduction in proliferation ([2]; 10 μg (greatest reduction)): 12%
- reduction in proliferation compared to controls ([2]; doses 1 μg and 10 μg): significant reduction in proliferation
- reduction in proliferation ([3]; in the absence of exogenously added adrenomedullin): 22%
- reduction in proliferation ([3]; in the presence of adrenomedullin): 37%
- reduction in proliferation compared to controls [4]: no statistically significant reduction in proliferation
- increase levels of caspase-3 [5]: 26%
- levels of caspase-3 (apoptosis), significance [6]: only antibody JB3 showed a significant increased
- tumour volume ([7]; versus control groups, FIG. 24): rates of growth within the treatment groups are considerably slower
- tumour weights ([7]; calculated back using the volumes of tumours, FIG. 25): still remain below control groups
